The target in assay [1] is Ovr110-HA on stably transfected mouse LMTK cells (human) (UniProt Q7Z7D3). Briefly: FACS on Ovr110-HA transfected mouse LMTK cells, secondary antibody alone.
For assay [2] the target is unchanged. Nature of the assay: FACS on Ovr110-HA transfected mouse LMTK cells, secondary antibody alone, gate I.

In assay [1], Donkey Anti-Mouse Ig-PE (antibody) yielded a Mean of Fluorescence of 0.48. The Percentage of cells in assay [2] is 0.6.

These data come from patent US20070178101A1.
